For the data set the following is noted: Homo sapiens; pH 7.8; Thermal; DSC; potassium phosphate 2 mM; transition: 2; reversible: Yes; whole UniProt chain shown.

B1: Superoxide dismutase [Mn], mitochondrial wild type, P04179 (protein)
chain: MLSRAVCGTSRQLAPVLGYLGSRQKHSLPDLPYDYGALEPHINAQIMQLHHSKHHAAYVNNLNVTEEKYQEALAKGDVTAQIALQPALKFNGGGHINHSIFWTNLSPNGGGEPKGELLEAIKRDFGSFDKFKEKLTAASVGVQGSGWGWLGFNKERGHLQIAACPNQDPLQGTTGLIPLLGIDVWEHAYYLQYKNVRPDYLKAIWNVINWENVTERYMACKK
For the protein B1, the Tm stood at 88.9 °C and the “unfolding enthalpy (calorimetric)” value worked out at 90.6 kcal/mol.

A word on the Tm: it is the temperature at which the thermal transition is half complete.

The values above are taken from FireProtDB (doi:10.1021/bi972395d).
